Reference: PMC12047801 (PLOS Pathogens, 2025)

Legend:
GST-USP7-murine TRAF WT = target: T1, GST-USP7-murine TRAF WT (murine, UniProt Q6A4J8 1-208); assay: pull-down; settings: both partners purified
T1 construct: also called GST-mUSP7-TRAF WT; murine USP7-TRAF

[1] = target: USP7 (endogenous in SLK.iBAC-GFP cells) (human (endogenous in SLK.iBAC-GFP), UniProt Q93009 1-1102); assay: cell-based or functional assay
[2] = target: T2, Recombinant USP7-TRAF protein (human, UniProt Q93009 1-208); assay: SPR; settings: both partners purified
T2 construct: also called USP7-TRAF domain

[3] = target: T2, Recombinant USP7-TRAF protein; assay: SPR; Biacore T200; USP7-TRAF immobilised on a CM5 chip by amine coupling to about 8000 RU; gradient concentrations of peptides injected at 30 μL/min; running buffer 0.05% (v/v) Tween 20 in PBS; settings: both partners purified

T2 sequence (Q93009 1-208): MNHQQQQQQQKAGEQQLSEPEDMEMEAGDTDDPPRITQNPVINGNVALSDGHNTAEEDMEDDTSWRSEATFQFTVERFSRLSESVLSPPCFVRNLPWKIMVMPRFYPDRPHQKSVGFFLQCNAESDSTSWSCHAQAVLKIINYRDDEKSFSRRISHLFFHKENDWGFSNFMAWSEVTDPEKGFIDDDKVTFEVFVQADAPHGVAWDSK
T1 sequence (Q6A4J8 1-208): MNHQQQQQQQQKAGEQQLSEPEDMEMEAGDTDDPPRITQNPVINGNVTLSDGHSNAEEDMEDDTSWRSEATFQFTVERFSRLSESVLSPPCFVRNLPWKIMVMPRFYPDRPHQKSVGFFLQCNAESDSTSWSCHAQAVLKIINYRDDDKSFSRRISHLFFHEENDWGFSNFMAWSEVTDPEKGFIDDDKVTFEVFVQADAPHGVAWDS
USP7 (endogenous in SLK.iBAC-GFP cells), sequence (Q93009 whole entry): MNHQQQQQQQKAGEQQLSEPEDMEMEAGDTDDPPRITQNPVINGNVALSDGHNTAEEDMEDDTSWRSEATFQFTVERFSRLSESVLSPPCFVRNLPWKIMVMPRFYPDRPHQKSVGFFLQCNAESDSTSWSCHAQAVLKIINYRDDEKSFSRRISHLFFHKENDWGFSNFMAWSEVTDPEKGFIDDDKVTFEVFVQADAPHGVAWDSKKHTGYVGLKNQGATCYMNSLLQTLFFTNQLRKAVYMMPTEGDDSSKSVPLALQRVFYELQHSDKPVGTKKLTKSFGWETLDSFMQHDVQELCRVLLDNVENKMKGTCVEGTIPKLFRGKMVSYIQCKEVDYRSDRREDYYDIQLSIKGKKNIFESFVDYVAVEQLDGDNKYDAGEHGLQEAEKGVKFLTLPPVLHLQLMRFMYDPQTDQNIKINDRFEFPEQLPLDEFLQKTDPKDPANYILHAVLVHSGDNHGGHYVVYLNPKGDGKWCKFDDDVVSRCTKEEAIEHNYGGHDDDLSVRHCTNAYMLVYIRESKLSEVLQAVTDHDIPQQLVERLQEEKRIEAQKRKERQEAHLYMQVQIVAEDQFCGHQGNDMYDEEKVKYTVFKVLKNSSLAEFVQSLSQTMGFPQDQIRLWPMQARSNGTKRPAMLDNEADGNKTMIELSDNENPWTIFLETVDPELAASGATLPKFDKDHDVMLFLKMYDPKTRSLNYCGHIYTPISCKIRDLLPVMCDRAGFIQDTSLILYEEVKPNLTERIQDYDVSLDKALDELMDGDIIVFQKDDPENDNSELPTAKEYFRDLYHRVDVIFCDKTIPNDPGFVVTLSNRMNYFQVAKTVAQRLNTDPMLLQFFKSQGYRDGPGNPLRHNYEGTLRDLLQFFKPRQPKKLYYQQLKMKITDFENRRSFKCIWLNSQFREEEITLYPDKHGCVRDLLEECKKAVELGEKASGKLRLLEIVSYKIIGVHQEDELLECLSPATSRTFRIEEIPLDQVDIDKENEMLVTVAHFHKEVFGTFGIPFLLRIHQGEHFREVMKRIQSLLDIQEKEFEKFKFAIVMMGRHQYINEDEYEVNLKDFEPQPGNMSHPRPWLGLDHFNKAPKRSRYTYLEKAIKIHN

## Ac-YGRKKRRQRRRGGVSQSPSQNSN-NH2 (also called murine-derived p8) [p8-m]
GST-USP7-murine TRAF WT
  binding result: binds

## Ac-YGRKKRRQRRRGGVNQSASQSSN-NH2 [p8 fused to an N-terminal Tat(47-57) peptide via a GG linker]
[1]
  IC50 of inhibition of KSHV lytic reactivation in SLK.iBAC-GFP cells (blocks OTUD4-USP7): 52.6 µM

B1: p8 (peptide)
peptide: Ac-VNQSASQSSN-NH2
notes: also called peptide p8; human-derived p8
[2]
  Kd: 3.16 µM

## Ac-EVADEDNSEI-NH2 (also called peptide p2) [p2]
[3]
  Kd: 9.02 µM
